Assay results reported in patent US20050025760A1 (KEIO UNIVERSITY, published 2005).

How the values were obtained:
Experiment in all cases: immunoprecipitation of point-mutated molecules (FIG. 5)
[1] = target: T1, Dsg3-M7 (human, UniProt P32926 50-615, V3I; K7A; P8A)
T1 construct: extracellular domain; also called hDsg3-M7
T1 sequence (looked up): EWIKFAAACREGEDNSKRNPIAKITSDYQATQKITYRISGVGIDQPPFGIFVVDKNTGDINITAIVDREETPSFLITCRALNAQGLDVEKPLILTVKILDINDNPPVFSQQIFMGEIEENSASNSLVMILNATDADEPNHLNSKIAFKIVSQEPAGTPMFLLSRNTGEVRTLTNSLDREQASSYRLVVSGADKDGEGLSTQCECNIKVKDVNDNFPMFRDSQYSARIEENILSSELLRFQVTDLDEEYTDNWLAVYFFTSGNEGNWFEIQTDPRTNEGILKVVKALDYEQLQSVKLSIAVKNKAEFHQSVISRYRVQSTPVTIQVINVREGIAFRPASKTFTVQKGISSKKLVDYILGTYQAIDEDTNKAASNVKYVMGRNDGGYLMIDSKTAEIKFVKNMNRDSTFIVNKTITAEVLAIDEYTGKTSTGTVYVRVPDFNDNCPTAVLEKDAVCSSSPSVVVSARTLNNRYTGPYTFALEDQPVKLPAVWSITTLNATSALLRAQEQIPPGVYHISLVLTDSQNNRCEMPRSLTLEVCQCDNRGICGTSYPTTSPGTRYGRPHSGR

[2] = target: T2, Dsg3-M1 (human, UniProt P32926 50-615, T25H; Y28C; Q29A)
T2 construct: extracellular domain; Dsg3-specific residues changed to the Dsg1-specific ones; also called point-mutated human Dsg3 molecule M1; not shown: His tag of vector pEVmod-His
T2 sequence (looked up): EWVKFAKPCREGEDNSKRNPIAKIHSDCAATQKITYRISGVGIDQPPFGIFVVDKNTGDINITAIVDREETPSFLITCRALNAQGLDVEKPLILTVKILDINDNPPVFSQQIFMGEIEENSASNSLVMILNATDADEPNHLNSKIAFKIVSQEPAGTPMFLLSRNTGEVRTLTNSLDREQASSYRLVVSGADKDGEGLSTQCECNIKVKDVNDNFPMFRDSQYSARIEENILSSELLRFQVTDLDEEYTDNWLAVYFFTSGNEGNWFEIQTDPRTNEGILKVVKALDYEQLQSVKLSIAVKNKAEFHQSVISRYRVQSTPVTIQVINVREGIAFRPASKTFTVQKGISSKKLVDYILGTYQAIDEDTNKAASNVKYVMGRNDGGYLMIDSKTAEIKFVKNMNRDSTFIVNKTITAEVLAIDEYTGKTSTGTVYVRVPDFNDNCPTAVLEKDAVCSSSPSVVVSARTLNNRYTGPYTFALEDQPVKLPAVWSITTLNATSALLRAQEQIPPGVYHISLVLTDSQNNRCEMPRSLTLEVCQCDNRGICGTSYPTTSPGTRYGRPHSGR

[3] = target: T3, Dsg1-M7 (human, UniProt Q02413 50-545, I3V; A7K; A8P)
T3 construct: extracellular domain; also called hDsg1-M7
T3 sequence (looked up): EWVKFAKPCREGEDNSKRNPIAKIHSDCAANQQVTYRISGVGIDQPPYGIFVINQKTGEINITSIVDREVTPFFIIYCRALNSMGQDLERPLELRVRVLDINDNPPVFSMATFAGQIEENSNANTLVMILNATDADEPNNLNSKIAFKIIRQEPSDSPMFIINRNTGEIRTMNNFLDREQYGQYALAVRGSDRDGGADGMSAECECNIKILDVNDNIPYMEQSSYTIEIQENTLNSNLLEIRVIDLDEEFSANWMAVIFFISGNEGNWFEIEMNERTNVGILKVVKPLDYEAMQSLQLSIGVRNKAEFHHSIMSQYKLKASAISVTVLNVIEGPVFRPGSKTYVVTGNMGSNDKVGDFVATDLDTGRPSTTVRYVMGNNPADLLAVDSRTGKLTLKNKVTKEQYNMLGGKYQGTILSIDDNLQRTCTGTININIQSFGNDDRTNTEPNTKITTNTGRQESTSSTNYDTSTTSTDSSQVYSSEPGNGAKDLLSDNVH

[4] = target: T4, Dsg3-M6 (human, UniProt P32926 50-615, A83S; Q84M)
T4 construct: extracellular domain; also called point-mutated human Dsg3 molecule M6; not shown: His tag of vector pEVmod-His
T4 sequence (looked up): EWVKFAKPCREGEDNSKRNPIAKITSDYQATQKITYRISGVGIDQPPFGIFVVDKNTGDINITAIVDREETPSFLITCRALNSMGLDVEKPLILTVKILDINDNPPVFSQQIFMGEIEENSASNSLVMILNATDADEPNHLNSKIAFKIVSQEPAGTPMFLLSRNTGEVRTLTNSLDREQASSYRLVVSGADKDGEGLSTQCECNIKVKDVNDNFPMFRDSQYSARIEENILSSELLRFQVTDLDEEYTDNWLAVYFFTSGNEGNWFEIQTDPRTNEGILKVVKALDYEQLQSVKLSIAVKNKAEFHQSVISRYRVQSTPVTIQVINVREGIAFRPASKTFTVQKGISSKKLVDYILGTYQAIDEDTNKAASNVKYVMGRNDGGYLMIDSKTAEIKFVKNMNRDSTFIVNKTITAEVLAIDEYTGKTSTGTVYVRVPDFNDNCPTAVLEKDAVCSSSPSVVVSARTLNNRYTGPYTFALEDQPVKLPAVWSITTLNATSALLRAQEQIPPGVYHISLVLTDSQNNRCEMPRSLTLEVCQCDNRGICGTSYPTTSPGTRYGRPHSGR

B1: anti-Dsg3 monoclonal antibody AK23 (antibody, mouse IgG1, V domains shown)
VH: QVQLQQSGTELVKPGASVKLSCKSSGYTFTSYWINWVKQRPGQGLEWIGNINPSNGGINYNEKFKSKATLTVDKSSSTAYMQLKSLTSEDSAVYYCARGGYDGYPWGQGTTVTVS
VL: DIQMTQSPKFLLVSAGDRVTITCKASQSVSYDVAWYQQKPGQSPKLLISYASNRYTGVPDRFTGSGYGSDFTFTISTVQTEDLAVYFCQQDYSSPWTFGGGTKLELKR
notes: Mouse IgG1 kappa hybridoma antibody
binding result [1]: no binding
binding result [2]: binds
binding result [3]: no binding
binding result [4]: binds
